Results from the Human Domainome abundance scans (Beltran et al. 2025).
± gives the uncertainty stated by the source.

B1: GA-binding protein alpha chain, residues 172 to 250; numbered along this chain, Q06546 (parent)
chain: GYRKEQERLGIPYDPIQWSTDQVLHWVVWVMKEFSMTDIDLTTLNISGRELCSLNQEDFFQRVPRGEILWSHLELLRKY

Variants of: B1
Experiment: abundance fitness (aPCA) (normalised: wild type 0, dead -1); higher = more abundant; growth selection in yeast, the domain comes from the species named
Conditions: Homo sapiens
Variant D14I has an abundance fitness of -0.94 ± 0.15. Variant D14A has an abundance fitness of -0.369 ± 0.043. With D14Q the abundance fitness was -0.344 ± 0.08. D14N gave an abundance fitness of -0.072 ± 0.06. With D14E the abundance fitness was -0.15 ± 0.049. In the case of D14T, the abundance fitness is reported as -0.868 ± 0.24. Variant D14K has an abundance fitness of -0.793 ± 0.23. Variant Q61Y has an abundance fitness of -0.203 ± 0.13. With Q61D the abundance fitness was -0.155 ± 0.088. Q61W gave an abundance fitness of -0.298 ± 0.043. Q61L gave an abundance fitness of -0.009 ± 0.049. F34A gave an abundance fitness of -0.031 ± 0.037. With F34G the abundance fitness was -0.117 ± 0.033. Variant L73I has an abundance fitness of -0.542 ± 0.088. In the case of L73V, the abundance fitness is reported as -0.376 ± 0.052. I11C gave an abundance fitness of -0.487 ± 0.058. I11T showed an abundance fitness of -0.75 ± 0.089. For I11K, the abundance fitness was -1.21 ± 0.44. In the case of I11N, the abundance fitness is reported as -0.818 ± 0.22. I11A showed an abundance fitness of -0.651 ± 0.058. G66T showed an abundance fitness of -0.735 ± 0.17. G66A showed an abundance fitness of -0.025 ± 0.039. In the case of G66V, the abundance fitness is reported as -0.835 ± 0.083. In the case of G66P, the abundance fitness is reported as -0.019 ± 0.04. Variant S53D has an abundance fitness of 0.076 ± 0.089. In the case of S53L, the abundance fitness is reported as -0.108 ± 0.042. With S53V the abundance fitness was -0.331 ± 0.065. S53P showed an abundance fitness of -0.522 ± 0.072. For R49G, the abundance fitness was -0.125 ± 0.031. With R49M the abundance fitness was 0.042 ± 0.061. Work on R49K yielded an abundance fitness of -0.086 ± 0.08. Work on R49N yielded an abundance fitness of -0.257 ± 0.17. Variant R49S has an abundance fitness of -0.006 ± 0.034. R49F showed an abundance fitness of -0.113 ± 0.073. For I39S, the abundance fitness was -0.275 ± 0.042. In the case of I39T, the abundance fitness is reported as -0.035 ± 0.057. I39D gave an abundance fitness of -0.288 ± 0.12. In the case of I39E, the abundance fitness is reported as -0.118 ± 0.077. With I39H the abundance fitness was -0.06 ± 0.076. K78E gave an abundance fitness of -0.05 ± 0.067. Work on K78Q yielded an abundance fitness of -0.059 ± 0.087. Work on K78P yielded an abundance fitness of -0.195 ± 0.066. In the case of K78N, the abundance fitness is reported as 0.096 ± 0.085. For K78D, the abundance fitness was 0.023 ± 0.1. K78S gave an abundance fitness of -0.045 ± 0.046. Variant K4Q has an abundance fitness of -0.106 ± 0.084. Variant K4V has an abundance fitness of -0.045 ± 0.038. For K4R, the abundance fitness was -0.029 ± 0.03. Variant K4S has an abundance fitness of -0.026 ± 0.035. Variant K4H has an abundance fitness of -0.003 ± 0.11. For K4F, the abundance fitness was -0.131 ± 0.071. For L41D, the abundance fitness was -0.386 ± 0.095. In the case of L41R, the abundance fitness is reported as -0.191 ± 0.033. With M31R the abundance fitness was -0.155 ± 0.036. M31A showed an abundance fitness of -0.046 ± 0.051. With M31H the abundance fitness was -0.169 ± 0.23. For M31T, the abundance fitness was 0.018 ± 0.059. Work on H25G yielded an abundance fitness of -0.207 ± 0.031. For H25A, the abundance fitness was -0.25 ± 0.039. For H25N, the abundance fitness was -0.048 ± 0.07. In the case of H25Q, the abundance fitness is reported as -0.304 ± 0.067. Variant H25F has an abundance fitness of -0.194 ± 0.09. H25V gave an abundance fitness of -0.219 ± 0.033. With H25P the abundance fitness was -0.942 ± 0.1. Work on M36V yielded an abundance fitness of -0.013 ± 0.034. M36A showed an abundance fitness of -0.025 ± 0.039. In the case of M36R, the abundance fitness is reported as -0.029 ± 0.028. With M36N the abundance fitness was -0.189 ± 0.12. For M36C, the abundance fitness was 0.081 ± 0.048. Variant M36F has an abundance fitness of -0.09 ± 0.058. Work on M36H yielded an abundance fitness of -0.193 ± 0.075. M36P gave an abundance fitness of -0.196 ± 0.055. For D21L, the abundance fitness was -0.414 ± 0.042. Work on L76E yielded an abundance fitness of -0.521 ± 0.091. Work on L76P yielded an abundance fitness of -0.727 ± 0.083. Variant L76A has an abundance fitness of -0.534 ± 0.048. Variant L76T has an abundance fitness of -0.29 ± 0.059. L76M showed an abundance fitness of -0.093 ± 0.11. Work on L76G yielded an abundance fitness of -0.95 ± 0.08. L76F showed an abundance fitness of -0.354 ± 0.061. D58P gave an abundance fitness of -0.943 ± 0.19. D58L gave an abundance fitness of -0.087 ± 0.044. With E50H the abundance fitness was -0.2 ± 0.11.
